Test results as given in US20020187514A1 (priority 1999, published 2002).

B1: EGF: reference compound, Epidermal Growth Factor assay (protein, UniProt P01133 23-1207, looked up)
Pro-epidermal growth factor: PQHWSCPEGTLAGNGNSTCVGPAPFLIFSHGNSIFRIDTEGTNYEQLVVDAGVSVIMDFHYNEKRIYWVDLERQLLQRVFLNGSRQERVCNIEKNVSGMAINWINEEVIWSNQQEGIITVTDMKGNNSHILLSALKYPANVAVDPVERFIFWSSEVAGSLYRADLDGVGVKALLETSEKITAVSLDVLDKRLFWIQYNREGSNSLICSCDYDGGSVHISKHPTQHNLFAMSLFGDRIFYSTWKMKTIWIANKHTGKDMVRINLHSSFVPLGELKVVHPLAQPKAEDDTWEPEQKLCKLRKGNCSSTVCGQDLQSHLCMCAEGYALSRDRKYCEDVNECAFWNHGCTLGCKNTPGSYYCTCPVGFVLLPDGKRCHQLVSCPRNVSECSHDCVLTSEGPLCFCPEGSVLERDGKTCSGCSSPDNGGCSQLCVPLSPVSWECDCFPGYDLQLDEKSCAASGPQPFLLFANSQDIRHMHFDGTDYGTLLSQQMGMVYALDHDPVENKIYFAHTALKWIERANMDGSQRERLIEEGVDVPEGLAVDWIGRRFYWTDRGKSLIGRSDLNGKRSKIITKENISQPRGIAVHPMAKRLFWTDTGINPRIESSSLQGLGRLVIASSDLIWPSGITIDFLTDKLYWCDAKQSVIEMANLDGSKRRRLTQNDVGHPFAVAVFEDYVWFSDWAMPSVMRVNKRTGKDRVRLQGSMLKPSSLVVVHPLAKPGADPCLYQNGGCEHICKKRLGTAWCSCREGFMKASDGKTCLALDGHQLLAGGEVDLKNQVTPLDILSKTRVSEDNITESQHMLVAEIMVSDQDDCAPVGCSMYARCISEGEDATCQCLKGFAGDGKLCSDIDECEMGVPVCPPASSKCINTEGGYVCRCSEGYQGDGIHCLDIDECQLGEHSCGENASCTNTEGGYTCMCAGRLSEPGLICPDSTPPPHLREDDHHYSVRNSDSECPLSHDGYCLHDGVCMYIEALDKYACNCVVGYIGERCQYRDLKWWELRHAGHGQQQKVIVVAVCVVVLVMLLLLSLWGAHYYRTQKLLSKNPKNPYEESSRDVRSRRPADTEDGMSSCPQPWFVVIKEHQDLKNGGQPVAGEDGQAADGSMQPTSWRQEPQLCGMGTEQGCWIPVSSDKGSCPQVMERSFHMPSYGTQTLEGGVEKPHSLLSANPLWQQRALDPPHQMELTQ
modifications: Pro-epidermal growth factor
B2: rC5a, Human: reference compound, Complement C5a assay (protein, UniProt P01031 678-751, looked up)
C5a anaphylatoxin: TLQKKIEEIAAKYKHSVVKKCCYDGACVNNDETCEQRAARISLGPRCIKAFTECCVVASQLRANISHKDMQLGR
modifications: C5a anaphylatoxin

Columns and labels:
[1] = molecular target: Epidermal Growth Factor, EGF; experiment: Epidermal Growth Factor, EGF; [125I]EGF; assay type: binding; details: reference compound, QA/QC; read-out: Ref Kj
Complement C5a = Complement C5a (Homo sapiens, UniProt P21730); experiment: Complement C5a (Human); [125I]BH-rC5a; assay type: binding; details: reference compound, QA/QC; read-out: Ref Kj
Sequence of Complement C5a (P21730 whole entry): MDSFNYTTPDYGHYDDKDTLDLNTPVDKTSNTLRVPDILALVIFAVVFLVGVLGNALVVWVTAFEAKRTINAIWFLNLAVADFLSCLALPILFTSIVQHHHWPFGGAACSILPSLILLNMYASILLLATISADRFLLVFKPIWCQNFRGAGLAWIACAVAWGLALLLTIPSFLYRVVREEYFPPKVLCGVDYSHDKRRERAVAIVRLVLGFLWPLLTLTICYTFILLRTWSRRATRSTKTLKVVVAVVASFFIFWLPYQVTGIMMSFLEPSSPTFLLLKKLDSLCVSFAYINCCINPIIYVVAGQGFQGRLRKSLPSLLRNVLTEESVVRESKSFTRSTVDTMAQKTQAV

Molecule | Ki [1] [nM] | Ki (Complement C5a) [nM]
B1 | 3.2 | –
B2 | – | 0.619
